In the domain aggregation screens of Martell et al. (2025):

Experiment: soluble fraction after stress (log2 fold change); higher = more stays soluble; pooled small domains, quantitative proteomics
Conditions: stress: 50 degC
In short: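 Custom libraries of small protein domains were pooled and measured in a high-throughput format, with quantitative proteomics as the read-out. Each library was stressed at 50°C. The value is the log2 fold change in the amount of each protein that stays soluble after stress, used as a measure of aggregation propensity; higher values mean more of the protein stays soluble.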

Sequence | soluble fraction (log2)
HMSSAMDMISRDVRNADSISISTTTYSKKIDLYNFDRNGDIEELHSYSAKNDLGILYNDEPI | -0.276
HMKVTGSVQKKKGYYYIVVRLPTKNGTQYEQKQKWFNTKLKATPRNKTAAQVILAEKLTEYGGIV | -2.8
HMNMYTVTGRLVDQDGVPQANALVTIDSSSQQTRTSPQGFYLIKVFGTEPSTIKFLVDGYDPQIVNFTP | -0.21
HMIPKIIDITDLNEEVREVIEEYMKRKRVEKYHIYQDSKGQIFIISGSAIIRYDSKLNNLYYL | -0.405
HMNDYNLTDREKEVLTFLFQGLEYKEIGMKMSVSPNTIRNHISNIYKKLHVTSKTQAIRVFLNN | -2.21
HMPTSILEKILNSAAEQFTRYGFKTITMDDIARHAGVSKKTLYQHFETKLDIIVAAVTHFHTMKF | -0.718
HMEKLNERLLYLRKNANLTQQQLADKLHISNKTISQWETGRTLPDIVMLVRLAEIYDMKLDELLNQ | -0.29
HMRHKSNRRLTAAHQIEQQIQKLLMENTMEAKELKESLNFAAKDIDTVLSWLVDKDKVRINAINQYYWT | -0.767
HMEKIYLISDAAKQVNVEAHVLRYWEEELDIPAKRNELGHRYYTQEDIETFRKVKELKAQGIQLKGIKNIL | 0.123
HMDLRIKEIMSERNVTSAWLAEKVGISKVAVSNIVTGKSSPSLDNLLKIADALNVSITTLIG | -0.824
HMNAVYPNPFVSEIYIGENNRSVEIYNLNGGLVYGMSQPSSRIDVSGLAAGSYILIKKDSSGHISSHKIMK | 0.0698
HMTTRQREALLDYLSRHPDQPLTVREIAAGVEPDGVSLSAVYRNLAELEAAGLIRRESRPGSREAVVQYV | 0.049
HMDEYTREQFVADMEEGRVREVTIHPNSEVPTGYIRVELANGADMKLYVTDIVEAEELVRSYGFDPPVRDV | 0.128
HMKELTARQIEILDFITNYEWRHGYWPSIRNIQVQFSYKSTNAVMGHLRALERKGAIERIPGQARTFRIH | -2.97
HMIPDPEKVMFDGGIRLLTQAGITEGKARSILGKWKRDHETERIIAALGAAQREGAIEPVSFIERVLRN | -0.0153
HMGRAAEETETFRTQGELDARIKELQGQMRDAAANLEFERAAGLRDTLKRLRTRGLGLSASP | 0.0346
HMEFQISLAAARVNANMTQEDTARAMKVSKTTIVNWEKGKVIPGIPEVEMMSRLYGIPQDYIFLP | -3.2
HMTQTGEVIRWDAERGFGFIATADGRRHVFFHVRDFRGGAAPGVGLRVGFEEIQVGGKGPRAMDVRPL | -0.48
HMLQVRRILQLLADGYSKRQISQQTAVSRNTIDSYEDRFHLTGKSYQELLSMEDGELSGIVYP | -0.424
HMDENVVLRKVAREAFVIEYVRGIRAIDPGIGGPKLWLMYKREFGDNDTVGRDTFEDILDRNNLKVRI | -3.26
HMRPAAELGLPHAPKHFIQYLTEDDRPQVLKDVDYEGGMGVSIGRLREDSIFDWKFVGLAHNTL | 0.062
HMFKYRELLDWAKNRFDDLEVSIAPKALALLVESIGTDLRLLDSEIQKLSMYKPLEMISTNDVEDLVA | -0.357
HMVVPELNLAQQDVLRALRQRGRATADHLSVDTHRPVSEVMGILLGLEIAEVLYRVEGGWFVPKTAR | -0.653
HMGTGTYQVWSANGLGVRMRSGPGTGYRILAVYSVGTSVTVLQKGAYWSYIRVGSRTGYMMNQFLVSG | 0.139
HMVTVPNYSDPRQYVEWGNANGITINRAVGDTIASMSGRVQDVRDSNGNSVIGKKVKKGSTVTVYIYFLK | -0.00985
HMGTDVFIMTGGTRKRGATWSYYFDLGKIDGKRQKKEKGGFKTKKEAETALAKAINEYNNAGA | -0.0903

Sequence | soluble fraction (log2)
HMNAQLTTIPDLDGMNMRAATAMLSSLGLEVKRIGSGTVFAQFPKAGAAMRPGSMVTIRGKAKSL | -0.355
HMWQVVEVDYGTFMSMTEDGQVGRVEIQEQENLILFTDQEETTVYKTAMVDDPDLTARLHDAGIPFYGQE | -0.64
HMAPKVHLLKVPVDKIREIIGTGGKVIRQITEETGAKIDISDDGSVKVSSPDQSSIDAATTWITGIIAE | 0.0652
HMLDDDAGMIQAILRKAPGHYLPLHDKSDPASIQAQLGISKAQFKRAVGTLMKQGLIRQVKGDGLYLTQ | 0.0324
HMGNEEEEAIREAEEAIERVLEYGEPQELNPQNGFIRRLQHQLAEKSHLSSESVGVEPYRRVRISK | 0.185
HMALKRVAPQGEDKLSAQLDGVEFDKLIPWLGMLEHDHRIAIVNLSIDRANATGLVNARVIL | -0.0239
HMTSISMDEKVVLGWHQVTTGAANSGMDKVVSNTSGLNVISPTWFKLSDNKGNYISIASKDYVDAAHKKGL | -0.232
HMSSDLVDYLVKYVAIVDNQEIEIADSKIGTAELGTTVSEVAKTVGNYYPKATVLSVKITGRNQEIVFEY | -2.83
HMVDLDIENYELEDILNLFRLQYNFVEADLKRAYRMALKLHPDKSGLDGEYFRFYMKAYKIVENIFNFRNR | -1.78
HMSAEAYLSFVKKENLRAAVVNYENNKEWLKDVPHERLLDLAVFAKVDMGEPGMSMKFNNWLLSR | -0.78
HMSNETLFEFFEKNISQLTPTLVDNINRSLAVHSKKNVKLAIMIAAKSNVRNWNYISAILNRWEKE | -2.21
HMIMNEYEELRDRYLIGQIWKIGDLIEAKGIEGKIIQRGTNYVTFNDNNGKVHKAWLHEIKYEQ | -0.343
HMYDEKTLRKAVLDYVRDNDDGRLDLMKIDSYLTSRYGNIDYAALGYNRLSMFISSFPELRRNSNYVTLRK | -0.164
HMYFMDEETWESKKTLLNDWYEANPEYADRRAISDGLFKIGDLQPDFRRRHWGSIGVIFADIPNSPMG | -0.915
HMTLKTISLTEAIKNTNEGNYSKLVLDGNELTITEQGKETPSLKTYTEPGTSLKEQGFDLSKVEFEAREQS | 0.152
HMDKGQRGWINLVSVPTARVIIDGYDTGHETPLYGYEVERGKRKVTLISLDGTYERTYEIRIEPGTTTRVR | -0.775
HMTIRLKELRKQKGNTQAEVAKILGTNQSQYGKYENERTQLSLDNAKILSDYFGVSVPYLLGLDDNP | -0.0854
HMTPAPHESLTDREMEVLKLLAQGLSNQEIADKLFIGVKTVKYHITNIFSKLGVEDRTQAAIYAHKQGLA | 0.0163
HMVVEDDTVLQAVKQAIEENPEAVSDYFEGKSKALNFLVGQVMRITRGKADPAKTNQMVVEELKNR | 0.111
HMETLTPQEHKVLLLAVKGRTNGEIASELGIAQNTVKNHLAHIYAKMGVGNRTELASEYLRRIH | 0.0726
HMRLDVALRGVLLDGDPTQSRAFVLVSGTTSTYRLGETVQSAELVAINADTITLRTETGLHVIGFDGLI | -2.48
HMGYPYDTVTTAKVNLRAKRSTSSDILKKIPEGATVTVKGVTGTFASVDYNGTSGYVKVDYLV | 0.069
HMGSAKAQLYDLMNAHQVTRNQIQDIVAEKGYFPAGTPIENYPDDFVKGVLVGAWDQVHKAILDKEI | 0.0946
HMKTKTAPPDSIPPAWLKESATLRPDLNQAQIKASAEVFLDHHRAKGTTLADWRPAWRNWIRRERA | 0.116
HMANNPISMIKIRQILRLHIQGRSKLQIAAQTGISRNTLKKYLKEFEASKLTYDEISELSDKDLEDLFIK | -2.02
HMDSVAKSFLAEIERFLETAGLEPTTLGKQALGDPSFVFDLRKGRSPSTRTIGKLRVWMQQQNALS | -1.2

Sequence | soluble fraction (log2)
HMRALPAGQADLLKWIDGVTPRSVEELELLSGLEPGRLSELLMELELAGIVRAVAGDSYIKISKS | -0.462
HMEDIVDLVVEPEAAGRRLDAWLASRIERLSRSRIKALIESGHVAIGGATIVEAKKPVNSGDVVQLSVPEG | 0.0215
HMNYKLESYLKKVDDQLNFIPVSDKADILSELKNTFYERLLNGQTEEEILDEMESPRELALSYMSES | 0.0578
HMITPNQAAVTLKVSTSTLRRWSSDFEPFLSPRKGVKRLYTIEDIATLKRIQGLYKQGMNTAQVQA | -2.1
HMKETKVIHVHLIFKKTSRFFGSISAIYSEFTAEEIGITEETLRHKGLSDGVSFATKKAIIQQGVLIR | -1.67
HMPQETPIPKSEIQSYDEIWLEPISTDNILRNELRGWYHVKDRWVENEFGNRFYLDTYASKWLAFPS | -0.0557
HMTRYEQLAAQIRQQIEDNIWQSGDRLPSLRDTVKQSGLSLMTVLQSYQLLESQGWITARPQSGYYVAHR | 0.348
HMLDDESLHFFYKKDGWEYWMKTTTENNYPIQLRKKIGDEKVQEYWNGDKEKKKIGASYFGV | -0.391
HMHMSKKLADSIISLRRKHGFSQEQLAEKIGVTRQAISNWERGTATPDVETLNLIAKLFDMDLLAIINGE | 0.0766
HMAPEEIPLDRVVRLVEQGRVESIVVTGERLEVTLQNGTVYGSTKENGVGFMETLDRYQVPLEQRDFSYEV | -0.0708
HMPNYVEMLRLHEAGFSLRQIAKLVSSGRNTVTRTVNIAQEKELSYEEIAQWSSEELENMFKPD | -1.68
HMDIVKVYTTARAGETLASVAKRTGVDVARLAQWNDIPLKRAKQKLKTGKALALWVQREHASAYSNAPP | -0.151
HMDKMVAVPNVRGIEASEAEATLIAQGLFVEVEKSDSEDANVAYGEVYAQTPKAGNRVEEGTTITIKVRTE | 0.0555
HMGDDYFTILGIERDATTDEIRSAYRRLSKKIHPDAQGSSALFRQVQEAYETLIDPSSRARYVAELNASQG | 0.113
HMKTAAKVLGESGGKPVTVQSGRYGPYVQLGTIRATLPKDLDQEAVTLDKALELIDAKAERSGK | 0.172
HMSAGPQGRTPREDELTVGTKVYVSRVGASGVVSSDVSRGKVVVQVGALRLTAAVSELLLLDG | 0.151
HMSSVVARRARIATLVVETSVASQEELGRLLADEGITVTQATLSRDLDALGAVKVLSADGGTRYRIPGQ | -0.778
HMAEAAVELSQQILARLLEAGGSLPLSDKSSPEDIHRLFGVSKRTFKKAIGGLYKKGLILIHPERIELP | -0.588
HMLNTLGADIRALRKARGLTLAELAQTLGRSVGWLSQVERDMSEPGINDLRDLARALDVSISSLFG | -1.13
HMPRSLGADLRAIRKGRRLTLTDMAEALDRSVGWVSQVERDISTPSISDLRRMAEILDVPVSLLFG | -2.87
HMHDPRLPLPGTLLAREFQGRDIVVKVLDNGFEFDGRRYKSLSAIAQEVTGSKWNGFLFFGI | -0.857
HMMTDAEKTFIFFSHLSSVEDHIAYGDKQFYMSLFWQHENKRELSSSQLYHLERLYNKYSMEEIEKKEEFS | -0.78
HMIPRNLEDLVRENQIGLVILKIVEIIGEDNIRDLDPETIYFINRILNELNLKKIRNNILSEALPPR | -1.31
HMNKIDVVEVDMSKPYEDMTVTELQNVILGKLASNGPVTDQMKKDVAENIYHDSLVNWAKSF | 0.505
